Substitutions are numbered along the chain they refer to.
B1: S8-ATX1E2 (antibody, V domains shown)
VH: EVQLVESGGGLVKPGESLRLSCAASGFTFSNAWMSWVRQAPGKGLEWVGRDGGARDYAAPVKGRFTISRDDSKNTLYLQMNTLKTEDTAVYYCTKGAFFFDYWGQGTLVTVSS
VL: EIVLTQSPGTLSLSPGERATLSCRASQSVISGYLAWYQQKPGQAPRLLIYGASRRATGITDRFSGSGSGTDFTLIISRLEPEDSAVYYCQQYDSSPRTFGQGTKVEIK
B2: S8-ATX2G9 (antibody, V domains shown)
VH: EVQLVESGGGVVRPGGSLRLSCAASGFTFDDYGMSWVRQAPGKGLEWVSGINWNGGSTGYADSVKGRFSISRDNAKNSLYLQMNSLRAEDTALYYCAREGITILRGVIIEDWYFDLWGRGTLVIVSS
VL: not shown
B3: S8-ATX2B11 (antibody, V domains shown)
VH: B2 VH with F29L, G56A, S57T, G59D, L79V, I103M, L104V, I124T
VL: not shown
B4: S8-ATX1H4 (antibody, V domains shown)
VH: QVQLVQSGTEVKYPGASVKVSCKASGYTFIDYGISWVRQAPGQGLEWMGWISAYNGNTDYAQKLQGRVTMTTDTSTSTAYMDLRSLRSDDTAVYYCAREGEGYCTYGVCPSFDYWGQGTLVTVSS
VL: EIVLTQSPGTLSLSPGERATLSCRASQSVSSSYLAWYQQKPGQAPRLLIYGASTRGTGIPDRFSGSGSGTDFTLTISRLEPEDFALYYCQQYGSSPYTFGQGTKLEIK
B5: S8-ATX2F10 (antibody, V domains shown)
VH: EVQLVESGGDLVKSGGSLRLSCAASGFTFSDAWMSWVRQAPGKGLEWVGRIQSKTDGGTTDYVAPVKGRFTISRDDSKDTLYLHMNSLTTEDTAVYYCTTDLYYYGSGSYFLGQGTLVTVSS
VL: DIQMTQSPSSLSASVGDRVTITCRASQNIITYLNWYQQKPGKAPKLLIYAASSLQSGVPSRFSGSGSGTDFTLTISSLQPEDFAIYHCQQSYNVPTTFGQGTKLEIK
B6: S8-ATX1E4 (antibody, V domains shown)
VH: QVQLVQSGSELKKPGASVKVSCKTSGYTFTSYAMNWVRQAPGQGLEWMGWINTNTGNPTYAQGFRGRFVFSLDTSVSTAYLQISSLKAEDTAVYYCARDKYSSSWYWFDSWGQGTLVTVSS
VL: DIQMTQSPSSLSASVGDRVTITCRPSQNISSYLNWYQQKPGKAPKLLIYAASSLRSGVPSRFSGSGSGTDFTLTVSSLQPEDFANYYCQQSYSTPYTFGRGTKLEIK
B7: S8-ATX1B6 (antibody, V domains shown)
VH: QVQLVESGGGVVLPGRSLRLSCAASGFTFNIYGMHWVRQAPGKGLEWVAVISYDGNNKEYADSVKGRFTISRDSSRNTLYLQMNSLRAEDTAVYYCAKRGYGSSSLEFWGQGTLVTVSS
VL: DIQMTQSPSSLSASVGDRVTITCRSSQDIRNDLGWYQQKPGKAPKRLIYASSNLQSGVPSRFSGSGSGTEFTLTISSLQPDDFATYYCLQHNTYPYTFGQGTKLEIK
B8: S8-ATX1B4 (antibody, V domains shown)
VH: B7 VH with L13Q, N30S, E59D, A61T, S74N, R76K, R87T
VL: B7 VL with S25A, S51T, N53S, G66R, T69A, I75V, D81E
B9: S8-ATX2A3 (antibody, V domains shown)
VH: QVQLQESGPGLVKPSETLSLTCTVSGASISGYYWNWIRQPPGKGLEWIGYIHYSGTTNYNPSLKSRITISLDTSENQFSLRLSSVTAADTAVYYCARDWYTGYDWEGFDYWGQGTLVTVSS
VL: QSVLTQPPSVSGAPGQRVSFSCTGTSSNIGTGFDVHWYRQLPGTAPKVLIYNNNNRPSGVPDRFSASKSGTSASLAITGLQAEDEADYYCQSYDSSLSGSVFGGGTRLTVL
B10: S8-ATX1E1 (antibody, V domains shown)
VH: EVQLVESGGGLVQPGRSLRLSCAASGFMFDDYVMHWVRQAPGKGLEWVSGINWNSDNIGYADSVKGRFTISRDNAKNSLFLQMNSLRVEDTALYYCAKDIDAAAFDYWGQGTLVTVSS
VL: DIVMTQSPLSLPVTPGEPASISCRSSQSLLHSNGYSYLAWYLQKPGQSPQLLIYLVSNRASGVPDRFTGSGSGTDFTLKISRVEAEDVGVYYCMQALQTPWTFGQGTKVEIK

Each binder was assayed against full-length human Siglec-8 (Siglec-8^FL) (human, UniProt Q9NYZ4 17-499) (assay: BLI).
Sequence of full-length human Siglec-8 (Siglec-8^FL) (Q9NYZ4 17-499): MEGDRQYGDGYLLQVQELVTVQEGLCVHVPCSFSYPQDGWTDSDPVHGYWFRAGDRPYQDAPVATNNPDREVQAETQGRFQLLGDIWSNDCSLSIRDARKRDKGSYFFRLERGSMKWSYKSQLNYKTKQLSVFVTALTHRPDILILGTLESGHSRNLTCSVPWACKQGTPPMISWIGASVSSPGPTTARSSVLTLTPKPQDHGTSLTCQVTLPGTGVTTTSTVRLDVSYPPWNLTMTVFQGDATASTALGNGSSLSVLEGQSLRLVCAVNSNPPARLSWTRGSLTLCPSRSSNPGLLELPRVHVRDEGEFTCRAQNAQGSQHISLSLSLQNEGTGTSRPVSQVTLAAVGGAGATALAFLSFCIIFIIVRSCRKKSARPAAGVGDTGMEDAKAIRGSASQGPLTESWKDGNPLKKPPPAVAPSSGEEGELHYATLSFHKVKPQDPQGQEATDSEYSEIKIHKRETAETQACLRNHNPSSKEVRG
With B1 the Kd was 655 pM. Binder B2 has a Kd of 4.13 pM. For B3, the Kd was 10000 pM. B4 was tested, and the Kd was < 1 pM. B5 was tested, and the Kd was 100000 pM. B6 was tested, and the Kd was 917 pM. Binder B7 has a Kd of 2.19 pM. Work on B8 yielded a Kd of 502 pM. For B9, the Kd was < 1 pM. For B10, the Kd was 589 pM.

From patent US20250034245A1 (published 2025)
